From PMC5815017

Columns and labels:
[1] = target: T1, ParB (Caulobacter crescentus) (UniProt B8GW30); experiment: SPR; conditions: value assigned by figure order; SPR (ReDCaT, Biacore T200), HBS-EP+: 10 mM HEPES pH 7.4, 150 mM NaCl, 3 mM EDTA, 0.005% Surfactant P20, 25 C; ParB given as dimer
T1 sequence: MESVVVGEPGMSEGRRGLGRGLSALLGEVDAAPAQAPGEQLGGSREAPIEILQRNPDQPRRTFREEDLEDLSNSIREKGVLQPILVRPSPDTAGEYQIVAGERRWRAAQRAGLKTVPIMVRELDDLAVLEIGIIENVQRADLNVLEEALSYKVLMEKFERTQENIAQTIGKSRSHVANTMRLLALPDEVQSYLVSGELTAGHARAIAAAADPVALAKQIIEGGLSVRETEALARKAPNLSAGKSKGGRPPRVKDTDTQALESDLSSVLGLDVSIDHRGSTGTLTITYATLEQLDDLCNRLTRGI

[2] = target: T2, Spo0J (ParB) (Bacillus subtilis) (UniProt P26497); experiment: SPR; conditions: apparent Kd; SPR (ReDCaT, Biacore T200), HBS-EP+: 10 mM HEPES pH 7.4, 150 mM NaCl, 3 mM EDTA, 0.005% Surfactant P20, 25 C; ParB given as dimer
T2 sequence: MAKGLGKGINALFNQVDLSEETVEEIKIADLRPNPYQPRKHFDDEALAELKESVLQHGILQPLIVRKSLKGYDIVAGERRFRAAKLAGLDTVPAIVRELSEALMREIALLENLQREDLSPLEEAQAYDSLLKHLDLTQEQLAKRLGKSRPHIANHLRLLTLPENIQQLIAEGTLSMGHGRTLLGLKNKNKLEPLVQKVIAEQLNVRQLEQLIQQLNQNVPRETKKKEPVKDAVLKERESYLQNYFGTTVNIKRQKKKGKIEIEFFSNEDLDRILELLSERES

Row | Sequence | Kd [1] [nM] | Kd [2] [nM]
1 | CGATGTTTCCACGTGAAACAAGGC / GCCTTGTTTCACGTGGAAACATCGCCTACCCTACGTCCTCCTGC [parS site 7] | 144 | –
2 | AGAATGTTCCACGTGAAACAAAGA / TCTTTGTTTCACGTGGAACATTCTCCTACCCTACGTCCTCCTGC [B. subtilis parS 359] | – | 114
